One variant from IntAct's records for PubMed 16837009 can be followed below.

The labels stand for the following.
B1: Serine/threonine-protein kinase PAK 2 (Homo sapiens), Q13177 (parent)
chain: MSDNGELEDKPPAPPVRMSSTIFSTGGKDPLSANHSLKPLPSVPEEKKPRHKIISIFSGTEKGSKKKEKERPEISPPSDFEHTIHVGFDAVTGEFTGMPEQWARLLQTSNITKLEQKKNPQAVLDVLKFYDSNTVKQKYLSFTPPEKDGFPSGTPALNAKGTEAPAVVTEEEDDDEETAPPVIAPRPDHTKSIYTRSVIDPVPAPVGDSHVDGAAKSLDKQKKKTKMTDEEIMEKLRTIVSIGDPKKKYTRYEKIGQGASGTVFTATDVALGQEVAIKQINLQKQPKKELIINEILVMKELKNPNIVNFLDSYLVGDELFVVMEYLAGGSLTDVVTETCMDEAQIAAVCRECLQALEFLHANQVIHRDIKSDNVLLGMEGSVKLTDFGFCAQITPEQSKRSTMVGTPYWMAPEVVTRKAYGPKVDIWSLGIMAIEMVEGEPPYLNENPLRALYLIATNGTPELQNPEKLSPIFRDFLNRCLEMDVEKRGSAKELLQHPFLKLAKPLSSLTPLIMAAKEAMKSNR

Variants of B1 are the subject of this assay. To be noted: with limk1_human LIMK1, P53667.
Chain of limk1_human LIMK1, P53667 (P53667 whole entry, looked up): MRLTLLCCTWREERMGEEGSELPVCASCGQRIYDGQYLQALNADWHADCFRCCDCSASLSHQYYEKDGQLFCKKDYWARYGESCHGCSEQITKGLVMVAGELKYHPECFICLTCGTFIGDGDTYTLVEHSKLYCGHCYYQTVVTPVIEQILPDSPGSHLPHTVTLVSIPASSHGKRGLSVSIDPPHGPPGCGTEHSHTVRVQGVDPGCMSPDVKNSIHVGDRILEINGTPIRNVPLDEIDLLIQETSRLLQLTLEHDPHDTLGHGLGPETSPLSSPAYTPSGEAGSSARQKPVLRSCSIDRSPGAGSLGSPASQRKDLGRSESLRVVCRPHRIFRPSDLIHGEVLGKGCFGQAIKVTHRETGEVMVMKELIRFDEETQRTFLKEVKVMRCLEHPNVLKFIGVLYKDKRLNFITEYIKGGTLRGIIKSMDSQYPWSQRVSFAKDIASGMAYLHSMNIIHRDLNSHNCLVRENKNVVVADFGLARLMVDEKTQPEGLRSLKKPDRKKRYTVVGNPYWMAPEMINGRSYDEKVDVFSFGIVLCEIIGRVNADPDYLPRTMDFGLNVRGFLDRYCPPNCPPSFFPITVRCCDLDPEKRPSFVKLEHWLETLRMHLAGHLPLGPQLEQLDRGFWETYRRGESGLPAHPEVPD
Consider L449Q, for which the “effect of a mutation on the interaction” value is “increasing interaction”.
